B1: lymphocyte function-associated antigen 3 (LFA-3) on human erythrocytes (ligand, human (endogenous in erythrocytes), UniProt P19256 29-250, looked up)
chain: FSQQIYGVVYGNVTFHVPSNVPLKEVLWKKQKDKVAELENSEFRAFSSFKNRVYLDTVSGSLTIYNLTSSDEDEYEMESPNITDTMKFFLYVLESLPSPTLTCALTNGSIEVQCMIPEHYNSHRGLIMYSWDCPMEQCKRNSTSIYFKMENDLPQKIQCTLSNPLFNTTSSIILTTCIPSSGHSRHRYALIPIPLAVITTCIVLYMNGILKCDRKPDRTNSN
B2: CD2, purified, detergent-solubilized (receptor, human (endogenous in Jurkat or SKW3), UniProt P06729 25-351, looked up)
chain: KEITNALETWGALGQDINLDIPSFQMSDDIDDIKWEKTSDKKKIAQFRKEKETFKEKDTYKLFKNGTLKIKHLKTDDQDIYKVSIYDTKGKNVLEKIFDLKIQERVSKPKISWTCINTTLTCEVMNGTDPELNLYQDGKHLKLSQRVITHKWTTSLSAKFKCTAGNKVSKESSVEPVSCPEKGLDIYLIIGICGGGSLLMVFVALLVFYITKRKKQRSRRNDEELETRAHRVATEERGRKPHQIPASTPQNPATSQHPPPPPGHRSQAPSHRPPPPGHRVQHQPQKRPPAPSGTQVHQQKGPPLPRPRVQPKPPHGAAENSLSPSSN

Key:
[1] = biological target: B2; test: flow cytometry on cells
[2] = biological target: B1; test: flow cytometry on cells

| Ka [1] | IC50 [2] | Binder |
| --- | --- | --- |
| ~3e+07 M⁻¹ | – | B1 |
| – | ~30 nM | B2 |

— paper PMC2188280 (The Journal of Experimental Medicine, 1987)
